Changes are numbered by the printed parent chain.
T1: murine core RAG1 fused to maltose-binding protein, wild type (murine), P15919
T1 chain: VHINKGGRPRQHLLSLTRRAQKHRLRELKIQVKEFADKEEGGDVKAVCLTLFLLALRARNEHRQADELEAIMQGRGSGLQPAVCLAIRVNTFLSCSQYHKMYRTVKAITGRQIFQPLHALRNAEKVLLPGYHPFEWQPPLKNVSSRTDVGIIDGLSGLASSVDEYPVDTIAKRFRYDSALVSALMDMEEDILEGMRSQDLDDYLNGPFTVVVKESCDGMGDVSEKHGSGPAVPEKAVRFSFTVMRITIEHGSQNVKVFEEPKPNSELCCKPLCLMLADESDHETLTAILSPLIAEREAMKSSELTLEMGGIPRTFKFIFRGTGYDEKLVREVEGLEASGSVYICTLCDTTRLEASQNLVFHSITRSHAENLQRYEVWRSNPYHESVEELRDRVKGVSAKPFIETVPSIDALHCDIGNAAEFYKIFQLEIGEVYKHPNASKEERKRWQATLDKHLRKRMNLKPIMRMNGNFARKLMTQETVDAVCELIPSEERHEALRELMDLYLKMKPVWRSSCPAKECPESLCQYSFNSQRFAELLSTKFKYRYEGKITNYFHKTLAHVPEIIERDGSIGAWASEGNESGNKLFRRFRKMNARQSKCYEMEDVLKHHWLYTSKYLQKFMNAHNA

T2: mR1(core) E962A mutant (murine, UniProt P15919 384-1008, E962A)
T2 sequence (looked up): T1 chain with E579A

T3: murine core RAG1 fused to maltose-binding protein, wild type (murine, UniProt P15919 384-1008)
T3 sequence (looked up): T1 chain

T4: mR1(core) H942A mutant (murine, UniProt P15919 384-1008, H942A)
T4 sequence (looked up): T1 chain with H559A

T5: mR1(core) H937A mutant (murine, UniProt P15919 384-1008, H937A)
T5 sequence (looked up): T1 chain with H554A

B1: murine core RAG1 fused to maltose-binding protein, wild type, P15919 384-1008 (domain or fragment)
chain: T1 chain
B2: core RAG2 fused to glutathione S-transferase (domain or fragment, murine, UniProt P21784 1-387, looked up)
chain: MSLQMVTVGHNIALIQPGFSLMNFDGQVFFFGQKGWPKRSCPTGVFHFDIKQNHLKLKPAIFSKDSCYLPPLRYPATCSYKGSIDSDKHQYIIHGGKTPNNELSDKIYIMSVACKNNKKVTFRCTEKDLVGDVPEPRYGHSIDVVYSRGKSMGVLFGGRSYMPSTQRTTEKWNSVADCLPHVFLIDFEFGCATSYILPELQDGLSFHVSIARNDTVYILGGHSLASNIRPANLYRIRVDLPLGTPAVNCTVLPGGISVSSAILTQTNNDEFVIVGGYQLENQKRMVCSLVSLGDNTIEISEMETPDWTSDIKHSKIWFGSNMGNGTIFLGIPGDNKQAMSEAFYFYTLRCSEEDLSEDQKIVSNSQTSTEDPGDSTPFEDSEEFCFS

Tests used:
[1] = molecular target: T1, murine core RAG1 fused to …; experiment: SEC; conditions: remark: other sources report otherwise
[2] = molecular target: T2, mR1(core) E962A mutant; experiment: pull-down
[3] = molecular target: T3, murine core RAG1 fused to …; experiment: pull-down
[4] = molecular target: T4, mR1(core) H942A mutant; experiment: pull-down
[5] = molecular target: T5, mR1(core) H937A mutant; experiment: pull-down

Binder	stoichiometry N [1]	binding result [2]	binding result [3]	binding result [4]	binding result [5]
B1	2	–	–	–	–
B2	–	binds	binds	binds	binds

From paper PMC2782368 (Journal of molecular biology, 2009)
